For 7 molecules, binding result and Kd results are on record in patent US20150197561A1 (ONCOMED PHARMACEUTICALS, published 2015).

Assay [1] deals with T1, human Jagged1-Fc (extracellular domain of human Jagged1 fused to human Fc) (human, UniProt P78504 34-1067).
T1 construct: also called hJag1; human Jagged1 ECD-Fc; not shown: human Fc
Description: phage display output screened by ELISA on recombinant human Jagged1 ECD-Fc; 64R7 named as one of the Fabs in paragraph 226. As to the method:
Phage display was used to identify specific Fabs that bind to the extracellular domain of human Jagged1. 2×10¹³ Fab displaying phage particles from a human Fab phage library were incubated with passively immobilized recombinant human Jagged1 ECD protein fused with a human Fc domain. The non-binding phage were washed off, phage bound to the Jagged1 protein were eluted with 100 mM glycine, […] pH2.2 and the elutant was neutralized with 1/10 volume of 2M Tris base. The eluted output phage were used to infect TG1 F+ bacteria and rescued with helper phage. The output of rescued round one served as the starting point for further selection rounds. The selections were continued to round 3, and then the output was screened in ELISA for Fabs specifically binding to recombinant human Jagged1 ECD-Fc protein. Several Fabs that specifically bound to human Jagged1 were identified.

In assay [2] the target is T1, human Jagged1-Fc (extracellular domain …). The assay is described as follows: SPR, Biacore 2000; Jagged protein amine-coupled to CM5 chip, antibody injected 100-1.0 nM, global fit; Example 13 run (Table 5), compared with 133R0201, 133R0203, 133R0205; separate experiment from Table 3. As to the method:
(§1) The KDs of antibodies 133R0201, 133R0203 and 133R0205 were determined using a Biacore 2000 system from Biacore Lifescience (GE Healthcare) and compared to K, of antibody 64R7. As described above in Example 4, recombinant Jagged proteins human Jagged1-Fc (hJag1), mouse Jagged1-His (mJag1), human Jagged2-Fc (hJag2) and mouse Jagged2-Fc (mJag2) were immobilized on a CM5 chip using standard amine-based chemistry (NHS/EDC). Antibodies were serially diluted in 2-fold increments from 100 to 1.0 nM in HBS-P (0.01M HEPES pH7.4, 0.15M NaCl, 0.005% v/v Surfactant P20) and were injected over the chip surface. Kinetic data were collected over time and were fit using the simultaneous global fit equation to yield affinity constants (K, values) for each antibody (Table 5).

In assay [3] the target is T2, human Jagged2-Fc (extracellular domain of human Jagged2 fused to human Fc) (human, UniProt Q9Y219 27-1080).
T2 construct: also called hJag2; not shown: human Fc
T2 sequence (Q9Y219 27-1080 E501K): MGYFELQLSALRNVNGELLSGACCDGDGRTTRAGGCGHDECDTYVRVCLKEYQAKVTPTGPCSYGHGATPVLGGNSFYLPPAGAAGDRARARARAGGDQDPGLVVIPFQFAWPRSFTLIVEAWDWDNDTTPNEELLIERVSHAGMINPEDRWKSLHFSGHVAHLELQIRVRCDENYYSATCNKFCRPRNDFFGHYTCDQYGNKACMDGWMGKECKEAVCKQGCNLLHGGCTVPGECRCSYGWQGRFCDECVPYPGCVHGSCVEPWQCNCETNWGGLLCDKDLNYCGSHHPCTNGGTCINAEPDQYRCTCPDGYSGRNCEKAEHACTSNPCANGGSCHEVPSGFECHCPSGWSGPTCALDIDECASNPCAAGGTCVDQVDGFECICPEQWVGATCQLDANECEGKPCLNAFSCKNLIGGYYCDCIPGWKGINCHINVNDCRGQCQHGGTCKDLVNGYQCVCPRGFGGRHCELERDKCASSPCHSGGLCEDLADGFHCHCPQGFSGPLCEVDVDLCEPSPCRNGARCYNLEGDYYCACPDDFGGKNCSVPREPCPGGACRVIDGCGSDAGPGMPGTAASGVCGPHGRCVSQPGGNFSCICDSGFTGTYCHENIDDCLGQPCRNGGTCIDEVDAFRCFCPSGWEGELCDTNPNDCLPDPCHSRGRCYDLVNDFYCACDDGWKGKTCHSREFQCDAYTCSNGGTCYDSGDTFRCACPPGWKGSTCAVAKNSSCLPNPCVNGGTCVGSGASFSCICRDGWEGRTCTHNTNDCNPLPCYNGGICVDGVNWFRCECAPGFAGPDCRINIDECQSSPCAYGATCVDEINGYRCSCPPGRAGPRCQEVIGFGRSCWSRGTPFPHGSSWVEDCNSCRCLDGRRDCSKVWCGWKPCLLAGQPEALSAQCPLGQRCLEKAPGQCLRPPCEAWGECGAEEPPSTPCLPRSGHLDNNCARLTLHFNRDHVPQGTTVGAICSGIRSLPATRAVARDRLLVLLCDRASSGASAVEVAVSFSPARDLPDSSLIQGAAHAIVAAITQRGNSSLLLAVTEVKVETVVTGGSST
The assay is described as follows: SPR, Biacore 2000; Jagged protein amine-coupled to CM5 chip, antibody injected 100-1.0 nM, global fit. How it is done:
as §1
On the technique in general: Surface plasmon resonance follows binding to a sensor surface in real time, without labels.

The target in assay [4] is T3, mouse Jagged2-Fc (extracellular domain of mouse Jagged2 fused to human Fc) (mouse, UniProt Q9QYE5 24-1082).
T3 construct: extracellular domain; also called mJag2; not shown: human Fc
T3 sequence (Q9QYE5 24-1082): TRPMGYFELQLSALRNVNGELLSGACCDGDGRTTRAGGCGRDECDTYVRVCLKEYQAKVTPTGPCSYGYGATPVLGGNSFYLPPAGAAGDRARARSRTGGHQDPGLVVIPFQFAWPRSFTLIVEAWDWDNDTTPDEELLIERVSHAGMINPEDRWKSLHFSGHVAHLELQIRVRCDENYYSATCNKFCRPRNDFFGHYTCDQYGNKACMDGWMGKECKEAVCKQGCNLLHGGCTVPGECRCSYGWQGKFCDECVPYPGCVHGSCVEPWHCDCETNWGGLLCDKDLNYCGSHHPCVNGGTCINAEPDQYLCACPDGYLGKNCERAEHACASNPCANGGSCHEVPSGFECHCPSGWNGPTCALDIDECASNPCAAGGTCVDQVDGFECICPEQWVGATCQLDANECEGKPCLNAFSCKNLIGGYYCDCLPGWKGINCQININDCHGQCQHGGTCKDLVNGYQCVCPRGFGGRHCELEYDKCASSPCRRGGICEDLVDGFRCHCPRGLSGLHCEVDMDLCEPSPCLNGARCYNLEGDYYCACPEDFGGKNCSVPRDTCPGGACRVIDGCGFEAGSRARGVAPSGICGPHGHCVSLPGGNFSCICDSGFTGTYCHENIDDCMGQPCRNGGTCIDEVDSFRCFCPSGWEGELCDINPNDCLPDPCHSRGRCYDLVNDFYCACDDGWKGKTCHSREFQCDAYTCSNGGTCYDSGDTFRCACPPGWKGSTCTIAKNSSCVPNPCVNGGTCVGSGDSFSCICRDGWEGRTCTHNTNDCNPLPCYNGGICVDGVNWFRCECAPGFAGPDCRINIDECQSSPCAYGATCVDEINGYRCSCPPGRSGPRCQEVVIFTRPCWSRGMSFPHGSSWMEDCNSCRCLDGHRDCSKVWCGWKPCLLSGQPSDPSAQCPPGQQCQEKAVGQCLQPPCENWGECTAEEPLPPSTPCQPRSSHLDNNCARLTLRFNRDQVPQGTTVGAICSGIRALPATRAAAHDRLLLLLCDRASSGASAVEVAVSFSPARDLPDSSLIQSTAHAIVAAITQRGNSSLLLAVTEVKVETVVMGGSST
The description is as above. How it is done:
as §1

Assay [5] addresses T4, mouse Jagged1-His (extracellular domain of mouse Jagged1, aa 1-1060, with histidine tag) (mouse, UniProt Q9QXX0 34-1060).
T4 construct: made in insect cells; also called mJag1; Mouse Jagged 1 ECD His-tagged
The assay is described as above. As to the method: as §1

The target in assay [6] is T2, human Jagged2-Fc (extracellular domain …). The assay is described as above. As to the method: as §1, with “of 64M51, 64R7 and 64R1B” for “of”, “antibodies” for “antibodies 133R0201, 133R0203 and 133R0205”, “Healthcare). Recombinant” for “Healthcare) and compared to K, of antibody 64R7. As described above in Example 4, recombinant”, “(KD” for “(K,”, “3).” for “5).”
This is another data set of the same source.

In assay [7] the target is T3, mouse Jagged2-Fc (extracellular domain …). Described as above. How it is done:
as §1, with “of 64M51, 64R7 and 64R1B” for “of”, “antibodies” for “antibodies 133R0201, 133R0203 and 133R0205”, “Healthcare). Recombinant” for “Healthcare) and compared to K, of antibody 64R7. As described above in Example 4, recombinant”, “(KD” for “(K,”, “3).” for “5).”
The source holds these as a separate data set.

Assay [8] deals with T1, human Jagged1-Fc (extracellular domain …). The description is as above. As to the method: as §1, with “of 64M51, 64R7 and 64R1B” for “of”, “antibodies” for “antibodies 133R0201, 133R0203 and 133R0205”, “Healthcare). Recombinant” for “Healthcare) and compared to K, of antibody 64R7. As described above in Example 4, recombinant”, “(KD” for “(K,”, “3).” for “5).”
In assay [9] the target is T4, mouse Jagged1-His (extracellular domain …). Described as above. How it is done:
as §1, with “of 64M51, 64R7 and 64R1B” for “of”, “antibodies” for “antibodies 133R0201, 133R0203 and 133R0205”, “Healthcare). Recombinant” for “Healthcare) and compared to K, of antibody 64R7. As described above in Example 4, recombinant”, “(KD” for “(K,”, “3).” for “5).”
This is another data set of the same source.

Assay [10] deals with T1, human Jagged1-Fc (extracellular domain …). The assay is described as above. As to the method:
as §1
The source holds these as a separate data set.

Assay [11] has as its target T2, human Jagged2-Fc (extracellular domain …). Description: SPR, Biacore 2000; Jagged protein on CM5 chip, antibody injected. How it is done: as §1, with “of 64M51, 64R7 and 64R1B” for “of”, “antibodies” for “antibodies 133R0201, 133R0203 and 133R0205”, “Healthcare). Recombinant” for “Healthcare) and compared to K, of antibody 64R7. As described above in Example 4, recombinant”, “(KD” for “(K,”, “3).” for “5).”

The target in assay [12] is T3, mouse Jagged2-Fc (extracellular domain …). The description is as above. As to the method:
as §1, with “of 64M51, 64R7 and 64R1B” for “of”, “antibodies” for “antibodies 133R0201, 133R0203 and 133R0205”, “Healthcare). Recombinant” for “Healthcare) and compared to K, of antibody 64R7. As described above in Example 4, recombinant”, “(KD” for “(K,”, “3).” for “5).”

The target of assay [13] is T5, mouse Jagged2 expressed on HEK293 cells (mouse, UniProt Q9QYE5 24-1247).
T5 construct: whole, on cells
T5 sequence (Q9QYE5 24-1247): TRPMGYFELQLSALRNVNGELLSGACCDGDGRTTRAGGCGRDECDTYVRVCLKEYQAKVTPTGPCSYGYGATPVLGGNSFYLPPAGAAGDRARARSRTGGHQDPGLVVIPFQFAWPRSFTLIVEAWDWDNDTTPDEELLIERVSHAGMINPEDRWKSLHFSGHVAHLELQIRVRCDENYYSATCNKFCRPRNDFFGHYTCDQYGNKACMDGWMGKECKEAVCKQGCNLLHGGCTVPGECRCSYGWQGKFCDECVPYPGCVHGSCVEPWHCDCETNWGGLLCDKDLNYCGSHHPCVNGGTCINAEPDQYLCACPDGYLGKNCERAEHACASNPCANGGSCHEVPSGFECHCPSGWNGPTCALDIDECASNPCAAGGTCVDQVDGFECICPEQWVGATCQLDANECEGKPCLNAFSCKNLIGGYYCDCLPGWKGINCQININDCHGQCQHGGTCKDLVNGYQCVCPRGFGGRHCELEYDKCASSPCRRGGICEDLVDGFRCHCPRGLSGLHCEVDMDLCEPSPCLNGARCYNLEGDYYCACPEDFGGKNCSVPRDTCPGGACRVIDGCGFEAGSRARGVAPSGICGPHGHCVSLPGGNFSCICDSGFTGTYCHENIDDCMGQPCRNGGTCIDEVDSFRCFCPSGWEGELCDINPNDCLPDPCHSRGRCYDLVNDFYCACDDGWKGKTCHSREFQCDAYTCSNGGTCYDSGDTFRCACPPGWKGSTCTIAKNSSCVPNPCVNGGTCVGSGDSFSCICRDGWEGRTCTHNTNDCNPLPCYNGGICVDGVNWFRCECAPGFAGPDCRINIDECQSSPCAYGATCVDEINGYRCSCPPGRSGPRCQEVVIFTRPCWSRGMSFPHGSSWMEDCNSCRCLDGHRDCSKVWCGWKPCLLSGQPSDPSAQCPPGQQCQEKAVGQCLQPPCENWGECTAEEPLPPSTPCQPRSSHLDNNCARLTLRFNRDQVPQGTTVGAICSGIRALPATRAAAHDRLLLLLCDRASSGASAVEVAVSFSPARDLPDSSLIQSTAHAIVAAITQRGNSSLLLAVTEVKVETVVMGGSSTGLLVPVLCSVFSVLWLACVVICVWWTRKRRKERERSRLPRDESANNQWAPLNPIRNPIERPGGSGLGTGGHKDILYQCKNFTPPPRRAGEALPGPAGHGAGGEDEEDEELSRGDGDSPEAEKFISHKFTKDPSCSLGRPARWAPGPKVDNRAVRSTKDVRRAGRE
The assay is described as follows: flow cytometry on transfected HEK293 cells. (In general: Flow cytometry measures light scatter and fluorescence of single cells or particles in a stream.)

In assay [14] the target is T6, human Jagged2, full-length, expressed on transfected cells (human, UniProt Q9Y219 24-1238).
T6 construct: Full-length cDNA transfected into HEK293 cells (FACS) or PC3 cells (two cell population reporter assay); also called hJagged2; hJag2
T6 sequence (Q9Y219 24-1238 E501K limits assumed): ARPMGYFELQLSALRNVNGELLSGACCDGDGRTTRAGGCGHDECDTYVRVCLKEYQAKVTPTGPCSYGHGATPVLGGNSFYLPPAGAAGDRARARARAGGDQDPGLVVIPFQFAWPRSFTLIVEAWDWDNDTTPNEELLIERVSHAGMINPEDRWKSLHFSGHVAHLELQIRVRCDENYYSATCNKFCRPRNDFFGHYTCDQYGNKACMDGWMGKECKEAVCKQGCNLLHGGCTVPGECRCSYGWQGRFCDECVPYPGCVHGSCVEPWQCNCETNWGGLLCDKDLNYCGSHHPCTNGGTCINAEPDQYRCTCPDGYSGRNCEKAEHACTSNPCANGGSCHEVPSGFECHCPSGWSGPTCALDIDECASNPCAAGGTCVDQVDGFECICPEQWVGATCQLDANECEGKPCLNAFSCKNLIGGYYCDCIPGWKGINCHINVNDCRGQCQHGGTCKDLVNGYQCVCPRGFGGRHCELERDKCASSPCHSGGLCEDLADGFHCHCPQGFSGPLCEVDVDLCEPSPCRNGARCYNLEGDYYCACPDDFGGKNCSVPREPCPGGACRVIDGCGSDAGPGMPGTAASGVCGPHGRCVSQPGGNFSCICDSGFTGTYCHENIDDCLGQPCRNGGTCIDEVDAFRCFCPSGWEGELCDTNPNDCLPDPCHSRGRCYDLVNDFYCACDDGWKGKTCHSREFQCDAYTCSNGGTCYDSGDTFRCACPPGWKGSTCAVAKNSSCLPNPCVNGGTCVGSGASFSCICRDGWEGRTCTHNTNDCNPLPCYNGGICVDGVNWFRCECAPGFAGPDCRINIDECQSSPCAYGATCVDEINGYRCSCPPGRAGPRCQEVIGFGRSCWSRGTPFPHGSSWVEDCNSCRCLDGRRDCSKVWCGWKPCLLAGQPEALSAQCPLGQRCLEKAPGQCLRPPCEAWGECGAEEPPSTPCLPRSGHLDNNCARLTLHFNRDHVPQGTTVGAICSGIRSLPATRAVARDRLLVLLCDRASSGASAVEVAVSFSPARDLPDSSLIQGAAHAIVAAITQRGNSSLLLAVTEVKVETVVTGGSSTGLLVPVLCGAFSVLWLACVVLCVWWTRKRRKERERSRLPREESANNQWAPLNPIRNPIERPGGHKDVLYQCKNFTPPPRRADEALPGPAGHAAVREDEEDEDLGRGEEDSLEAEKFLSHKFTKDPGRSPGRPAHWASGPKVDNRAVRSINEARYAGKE
Description: flow cytometry on transfected HEK293 cells.

The Kd is the equilibrium constant for the complex coming apart. A high value points to a looser complex.

Where two headings read alike, the source gives them in different places.

B1: Fab 64R7 (Fab, V domains shown)
VH: QVQLVESGGGVVQPGRSLRLSCAASGFTFSSYAMHWVRQAPGKGLEWVAVISYDGSNKYYADSVKGRFTISRDNSKNTLYLQMNSLRAEDTAVYYCARDKYDIPDAFDIWGQGTLVTVSS
VL: DIRMTQSPSSLSASVGDRVTITCRASQGISNDLAWYQQKPGKVPRLLIYATSTLQSGVPSRFSGSGSATDFTLTISSLQPEDVATYYCQQSYNAPITFGQGTRLEIK
notes: Fab from a human Fab phage library; also called 64R7 Fab
With B1, the binding result in [1] is “binds”.

B2: 64R7 IgG2 antibody (antibody, V domains shown)
VH: QVQLVESGGGVVQPGRSLRLSCAASGFTFSSYAMHWVRQAPGKGLEWVAVISYDGSNKYYADSVKGRFTISRDNSKNTLYLQMNSLRAEDTAVYYCARDKYDIPDAFDIWGQGTLVTVSS
VL: DIRMTQSPSSLSASVGDRVTITCRASQGISNDLAWYQQKPGKVPRLLIYATSTLQSGVPSRFSGSGSATDFTLTISSLQPEDVATYYCQQSYNAPITFGQGTRLEIKR
notes: Human IgG2 / kappa, expressed in CHO cells; also called antibody 64R7; ATCC PTA-10470
B2: the Kd was 1.7 nM in assay [2]; 10 nM in [3]; 9.6 nM in [4]; 4.8 nM in assay [5]; 8.3 nM in assay [6]; 20.6 nM in assay [7]. Also, the Kd in assay [8] was 5.9 nM; in assay [9], 10.5 nM.

B3: antibody 133R0201 (antibody, V domains shown)
VH: QVQLVESGGGVVQPGRSLRLSCAASGFTFSSYAMHWVRQAPGKGLEWVAAIYPDSSNKYYADSVKGRFTISRDNSKNTLYLQMNSLRAEDTAVYYCARDKYDIPDAFDIWGQGTLVTVS
VL: DIRMTQSPSSLSASVGDRVTITCRASQGISNDLAWYQQKPGKVPRLLIYATSTLQSGVPSRFSGSGSATDFTLTISSLQPEDVATYYCQQSYNAPITFGQGTRLEIK
Consider B3, for which the Kd in assay [3] came to 2.9 nM; in assay [4] it was 3.2 nM; in assay [10], 0.76 nM; in [5], 0.8 nM.

B4: antibody 133R0205 (antibody, V domains shown)
VH: QVQLVESGGGVVQPGRSLRLSCAASGFTFSSYAMHWVRQAPGKGLEWVAAIYPASSNKYYADSVKGRFTISRDNSKNTLYLQMNSLRAEDTAVYYCARDKYDIPDAFDIWGQGTLVTVS
VL: DIRMTQSPSSLSASVGDRVTITCRASQGISNDLAWYQQKPGKVPRLLIYATSTLQSGVPSRFSGSGSATDFTLTISSLQPEDVATYYCQQSYNAPITFGQGTRLEIK
With B4, the Kd was found to be 5.8 nM in assay [3], 4.8 nM in assay [4], 1.2 nM in assay [10] and 1.5 nM in assay [5].

B5: antibody 133R0203 (antibody, V domains shown)
VH: QVQLVESGGGVVQPGRSLRLSCAASGFTFSSYAMHWVRQAPGKGLEWVAAISPEASNKYYADSVKGRFTISRDNSKNTLYLQMNSLRAEDTAVYYCARDKYDIPDAFDIWGQGTLVTVS
VL: DIRMTQSPSSLSASVGDRVTITCRASQGISNDLAWYQQKPGKVPRLLIYATSTLQSGVPSRFSGSGSATDFTLTISSLQPEDVATYYCQQSYNAPITFGQGTRLEIK
Turning to B5, the Kd in assay [3] amounted to 3.7 nM; in assay [4] it was 3.8 nM; in assay [10], 1.4 nM; in assay [5], 1.6 nM.

B6: 64R1B IgG2 antibody (antibody, V domains shown)
VH: QVQLQESGPGLVKPSGTLSLTCTVSGDSISSSNWWSWVRQPPGQGLEWIGEIFHGENTNYNPSLKSRVTISVDKSKNQISLNLTSATAADTAVYYCARNPGIGAAKFDSWGQGTLVTVSS
VL: DIVMTQTPLSLSVTPGQPASISCKSSQSLLHSDGKTYLYWYLQKPGQPPQLLIYEVSNRFSGVPDRFSGSGSGTDFTLKISRVEAEDVGVYYCMQHIDFPFTFGQGTKLEIKR
notes: Human IgG2 / kappa, expressed in CHO cells; also called antibody 64R1B; ATCC PTA-10469
As to B6, the binding result is reported as “no binding (tested: No binding detected at 100 nM)” in assay [11], “no binding (tested: No binding detected at 100 nM)” in assay [12], “no binding (tested: 10 µg/ml)” in assay [13] and “no binding (tested: 10 µg/ml)” in assay [14]. Besides, the results for the Kd in [8] and in assay [9] were 0.61 nM and 0.82 nM, respectively.

B7: antibody 64M51 (antibody, mouse IgG1, kappa, V domains shown)
VH: QVQLKQSGAELVRPGTSVKLSCKTSGYIFTSYWIHWVKQRSGQGLEWIARIYPGIGSTYYNEKFKDKATLTADKSSSTAYMQLSSLKSEDSAVYFCAKNGGFFDYWGQGTTLTVSS
VL: DIVLTQSPASLAVSLGQRATISCRASESVDSYGNSFMHWYQQKPGQPPKLLIYRASNLESGIPARFSGSGSRTDFTLTINPVEADDVATYYCQQSNEDPWTFGGGTKLEIKR
notes: Mouse hybridoma monoclonal raised against mouse Jagged1 ECD-His; also called anti-Jagged 64M51; ATCC PTA-10468
Consider B7, for which the Kd was 6.2 nM in assay [6], 7.9 nM in assay [7], 30 nM in assay [8] and 33 nM in assay [9].
